Experimental data taken from publication PMC4341510, “Jasmonate-responsive expression of paclitaxel biosynthesis genes in Taxus cuspidata cultured cells is negatively regulated by the bHLH transcription factors TcJAMYC1, TcJAMYC2, and TcJAMYC4”.

Key:
[1] = molecular target: GUS (beta-glucuronidase) (UniProt P05804 1-603); test: EMSA; 25-75 ng protein; 20 mM HEPES-KOH pH 7.9, 20% glycerol, 0.2 mM EDTA, 100 mM KCl, 0.5 mM PMSF, 1 mM DTT, 15 mM MgCl2, 5 ug BSA; 175 fmol probe in 20 ul; gel 7% PAGE, 0.5X TBE, 4 C; binding temperature not stated; conditions: protein: recombinant; label: 32P by Klenow fill-in when probe; 5' overhang 4 nt at both ends; labeled probe filled in
[2] = molecular target: T1, TcJAMYC1 (Taxus cuspidata (cell culture line P991), UniProt B9VVN9 1-660); test: EMSA; 25-100 ng protein; 20 mM HEPES-KOH pH 7.9, 20% glycerol, 0.2 mM EDTA, 100 mM KCl, 0.5 mM PMSF, 1 mM DTT, 15 mM MgCl2, 5 ug BSA; 175 fmol probe in 20 ul; gel 7% PAGE, 0.5X TBE, 4 C; binding temperature not stated; conditions: protein: recombinant; tags: N-terminal 6xHis (pDEST17); chain copies: 2; label: 32P by Klenow fill-in when probe; 5' overhang 4 nt at both ends; labeled probe filled in
[3] = molecular target: T1, TcJAMYC1; test: EMSA; 25-75 ng protein; 20 mM HEPES-KOH pH 7.9, 20% glycerol, 0.2 mM EDTA, 100 mM KCl, 0.5 mM PMSF, 1 mM DTT, 15 mM MgCl2, 5 ug BSA; 175 fmol probe in 20 ul; gel 7% PAGE, 0.5X TBE, 4 C; binding temperature not stated; conditions: protein: recombinant; tags: N-terminal 6xHis (pDEST17); chain copies: 2; label: 32P by Klenow fill-in when probe; 5' overhang 4 nt at both ends; labeled probe filled in
[4] = molecular target: T1, TcJAMYC1; test: competition EMSA; vs CATGTG probe; competes better than CATGTG self; 20 mM HEPES-KOH pH 7.9, 20% glycerol, 0.2 mM EDTA, 100 mM KCl, 0.5 mM PMSF, 1 mM DTT, 15 mM MgCl2, 5 ug BSA; 175 fmol probe in 20 ul; gel 7% PAGE, 0.5X TBE, 4 C; binding temperature not stated; conditions: protein: recombinant; tags: N-terminal 6xHis (pDEST17); chain copies: 2; label: 32P by Klenow fill-in when probe; 5' overhang 4 nt at both ends; labeled probe filled in

T1 sequence (B9VVN9 entry or part of it): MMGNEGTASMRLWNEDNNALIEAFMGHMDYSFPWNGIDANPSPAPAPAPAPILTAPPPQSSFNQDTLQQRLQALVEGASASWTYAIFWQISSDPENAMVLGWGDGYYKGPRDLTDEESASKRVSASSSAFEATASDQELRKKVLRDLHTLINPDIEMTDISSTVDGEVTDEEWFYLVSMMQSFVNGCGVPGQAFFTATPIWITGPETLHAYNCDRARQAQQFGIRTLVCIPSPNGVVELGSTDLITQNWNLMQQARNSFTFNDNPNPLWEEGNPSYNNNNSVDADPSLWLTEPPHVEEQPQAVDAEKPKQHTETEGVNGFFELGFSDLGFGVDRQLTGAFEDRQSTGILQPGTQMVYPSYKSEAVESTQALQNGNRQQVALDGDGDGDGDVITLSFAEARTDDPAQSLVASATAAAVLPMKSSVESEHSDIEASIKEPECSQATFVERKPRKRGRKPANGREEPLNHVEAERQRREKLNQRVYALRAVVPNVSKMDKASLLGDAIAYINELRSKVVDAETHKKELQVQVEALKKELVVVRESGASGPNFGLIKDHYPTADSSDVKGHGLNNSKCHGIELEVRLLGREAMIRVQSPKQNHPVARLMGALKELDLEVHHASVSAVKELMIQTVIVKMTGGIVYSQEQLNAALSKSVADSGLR
Chain of GUS (beta-glucuronidase) (P05804 whole entry): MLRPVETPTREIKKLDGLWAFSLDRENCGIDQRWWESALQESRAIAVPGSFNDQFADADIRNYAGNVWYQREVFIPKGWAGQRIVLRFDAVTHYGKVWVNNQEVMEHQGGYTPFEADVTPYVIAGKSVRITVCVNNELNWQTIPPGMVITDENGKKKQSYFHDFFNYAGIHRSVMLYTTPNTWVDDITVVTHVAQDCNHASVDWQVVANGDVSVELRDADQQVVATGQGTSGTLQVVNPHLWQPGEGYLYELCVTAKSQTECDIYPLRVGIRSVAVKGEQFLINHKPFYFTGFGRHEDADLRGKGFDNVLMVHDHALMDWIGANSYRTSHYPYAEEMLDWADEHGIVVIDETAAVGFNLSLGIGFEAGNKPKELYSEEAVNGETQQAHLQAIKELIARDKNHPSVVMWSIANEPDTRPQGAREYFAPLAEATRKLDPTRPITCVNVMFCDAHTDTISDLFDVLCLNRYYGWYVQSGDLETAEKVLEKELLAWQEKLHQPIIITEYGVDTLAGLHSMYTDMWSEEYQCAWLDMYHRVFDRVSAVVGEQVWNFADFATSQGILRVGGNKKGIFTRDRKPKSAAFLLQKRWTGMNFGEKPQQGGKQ

B1: CATGTG E-box (dsDNA)
DNA 1: TAGCGCATCGATCATGTGATCGATCG
DNA 2: CGTACGATCGATCACATGATCGATGC
B1: no binding [1]; binds [2].

B2: Mutated (no E-box) (dsDNA)
DNA 1: TAGCGCATCGATAAGCCTATCGATCG
DNA 2: CGTACGATCGATAGGCTTATCGATGC
B2: no binding [3].

B3: CACGTG E-box (dsDNA)
DNA 1: TAGCATCGATCGCACGTGATCGATCG
DNA 2: CGTACGATCGATCACGTGCGATCGAT
B3: binds [4].
